# Molecular target: MT1-MMPmCh ΔDKV (UniProt P50281)
substance,measurement,value
LIM Kinase-1 (from UniProt P53667 1-647) (natural protein),"tyrosine phosphorylation (4G10 blot) of precipitated MT1-MMPmCh by recombinant GST-LIMK1 in an in vitro kinase assay, ΔDKV against WT",60 % decrease
